Assay results from PMC2742502 (Journal of immunology (Baltimore, Md. : 1950), 2008).

Legend:
[1] = target: purified HLA A*0201 molecules (with human β2-microglobulin) (human (endogenous in EBV transformed cell lines) | human); assay: radioligand binding
[2] = tested on: PBMC; format: cell-based, human
[3] = tested on: T cells from healthy donors; conditions: heteroclitic HLA-A0201-restricted epitope; cited from earlier work

“HCV NS3 1406-1415 epitope peptide … (Lp5)” gave an IC50 [1] of 5 nM.

With phytohemmaglutinin [PHA] the “response in positive control” value [2] was “uniformly positive”.

B1: Melan-A epitope (L26–35): heteroclitic HLA-A0201-restricted Melan-A epitope (peptide, UniProt Q16655 1-118, looked up, variant A27L)
Melanoma antigen recognized …: MPREDAHFIYGYPKKGHGHSYTTAEELAGIGILTVILGVLLLIGCWYCRRRNGYRALMDKSLHVGTQCALTRRCPQEGFDHRDSKVSLQEKNCEPVVPNAPPAYEKLSAEQSPPPYSP
modifications: epitope 26-35
In the case of B1, the “frequency of T cells recognizing the epitope” value [3] is given as “relatively frequent”.
